This note sets out measurements from article PMC4837377 (Scientific Reports, 2016).

Sequences and labels used below:
B1: RanBP5 (residues 1-1115) co-expressed in the PA-PB1(1-686)-RanBP5 polyprotein (construct 21) (natural protein)
chain: MPEDQVGKLEATENTISAMAAAAAEQQQFYLLLGNLLSPDNVVRKQAEETYENIPGQSKITFLLQAIRNTTAAEEARQMAAVLLRRLLSSAFDEVYPALPSDVQTAIKSELLMIIQMETQSSMRKKVCDIAAELARNLIDEDGNNQWPEGLKFLFDSVSSQNVGLREAALHIFWNFPGIFGNQQQHYLDVIKRMLVQCMQDQEHPSIRTLSARATAAFILANEHNVALFKHFADLLPGFLQAVNDSCYQNDDSVLKSLVEIADTVPKYLRPHLEATLQLSLKLCGDTSLNNMQRQLALEVIVTLSETAAAMLRKHTNIVAQTIPQMLAMMVDLEEDEDWANADELEDDDFDSNAVAGESALDRMACGLGGKLVLPMIKEHIMQMLQNPDWKYRHAGLMALSAIGEGCHQQMEGILNEIVNFVLLFLQDPHPRVRYAACNAVGQMATDFAPGFQKKFHEKVIAALLQTMEDQGNQRVQAHAAAALINFTEDCPKSLLIPYLDNLVKHLHSIMVLKLQELIQKGTKLVLEQVVTSIASVADTAEEKFVPYYDLFMPSLKHIVENAVQKELRLLRGKTIECISLIGLAVGKEKFMQDASDVMQLLLKTQTDFNDMEDDDPQISYMISAWARMCKILGKEFQQYLPVVMGPLMKTASIKPEVALLDTQDMENMSDDDGWEFVNLGDQQSFGIKTAGLEEKSTACQMLVCYAKELKEGFVEYTEQVVKLMVPLLKFYFHDGVRVAAAESMPLLLECARVRGPEYLTQMWHFMCDALIKAIGTEPDSDVLSEIMHSFAKCIEVMGDGCLNNEHFEELGGILKAKLEEHFKNQELRQVKRQDEDYDEQVEESLQDEDDNDVYILTKVSDILHSIFSSYKEKVLPWFEQLLPLIVNLICPHRPWPDRQWGLCIFDDVIEHCSPASFKYAEYFLRPMLQYVCDNSPEVRQAAAYGLGVMAQYGGDNYRPFCTEALPLLVRVIQSADSKTKENVNATENCISAVGKIMKFKPDCVNVEEVLPHWLSWLPLHEDKEEAVQTFNYLCDLIESNHPIVLGPNNTNLPKIFSIIAEGEMHEAIKHEDPCAKRLANVVRQVQTSGGLWTECIAQLSPEQQAAIQELLNSA
B2: PA-PB1(1-686) heterodimer (construct 1) (complex)
chain 1: […]
chain 2: MDVNPTLLFLKVPAQNAISTTFPYTGDPPYSHGTGTGYTMDTVNRTHQYSEKGKWTTNTETGAAQLNPIDGPLPEDNEPSGYAQTDCVLEAMAFLEESHPGIFENSCLETMEVVQQTRVDRLTQGRQTYDWTLNRNQPAATALANTIEVFRSNGLIANESGRLIDFLKDVIESMDKEEMEITTHFQRKRRVRDNMTKKMVTQRTIGKKKQRVNKRSYLIRALTLNTMTKDAERGKLKRRAIATPGMQIRGFVYFVETLARSICEKLEQSGLPVGGNEKKAKLANVVRKMMTNSQDTELSFTITGDNTKWNENQNPRMFLAMITYITKNQPEWFRNILSIAPIMFSNKMARLGKGYMFESKRMKLRTQIPAEMLASIDLKYFNESTRKKIEKIRPLLIDGTASLSPGMMMGMFNMLSTVLGVSILNLGQKKYTKTTYWWDGLQSSDDFALIVNAPNHEGIQAGVDRFYRTCKLVGINMSKKKSYINRTGTFEFTSFFYRYGFVANFSMELPSFGVSGINESADMSIGVTVIKNNMINNDLGPATAQMALQLFIKDYRYTYRCHRGDTQIQTRRSFELKKLWEQTRSKAGLLVSDGGPNLYNIRNLHIPEVCLKWELMDEDYQGRLCNPLNPFVSHKEIESVNNAVVMPAHGPAKSMEYDAVATTHSWIPKRNRSILNTSQRGILEDE

In assay [1] the target is B2. The assay is described as follows: SEC-SAXS. The settings on record: both partners purified.
Assay [2] deals with B1. The assay is described as follows: co-purification (nickel resin, heparin, SEC). To be noted: partners not purified.

One may read the stoichiometry N as the number of molecules, sites or subunits per partner or assembly. Regarding B1, the “stoichiometry N” value in assay [1] was 1.
Consider B2, for which, in assay [2], the binding result was “binds”.
